Like-named read-outs stand apart in the source and are kept apart here.
Legend:
[1] = biological target: MASP2 in monkey serum (monkey); test: cell-based or functional assay
[2] = biological target: MASP2 in mouse serum (mouse, UniProt Q91WP0 20-685); test: cell-based or functional assay
[3] = biological target: T1, Murine MASP2A (S632A) protein (murine, UniProt Q91WP0 16-685); test: SPR (Biacore 8K), antibody captured on anti-human Fc chip, antigen as analyte, 1:1 fit
Experimental: (§1) The binding properties of the anti-MASP2 antibodies were determined by the method of Biacore. […] An anti-human Fc IgG capture chip was used to capture the antibodies, then antigens with different concentrations were used as a mobile phase for the determination, and finally curve fitting was performed according to a 1:1 mode to obtain affinity values.

[4] = biological target: T2, MASP2 in human serum (human, UniProt O00187 16-686); test: cell-based or functional assay
T2 sequence (O00187 16-686 limits assumed): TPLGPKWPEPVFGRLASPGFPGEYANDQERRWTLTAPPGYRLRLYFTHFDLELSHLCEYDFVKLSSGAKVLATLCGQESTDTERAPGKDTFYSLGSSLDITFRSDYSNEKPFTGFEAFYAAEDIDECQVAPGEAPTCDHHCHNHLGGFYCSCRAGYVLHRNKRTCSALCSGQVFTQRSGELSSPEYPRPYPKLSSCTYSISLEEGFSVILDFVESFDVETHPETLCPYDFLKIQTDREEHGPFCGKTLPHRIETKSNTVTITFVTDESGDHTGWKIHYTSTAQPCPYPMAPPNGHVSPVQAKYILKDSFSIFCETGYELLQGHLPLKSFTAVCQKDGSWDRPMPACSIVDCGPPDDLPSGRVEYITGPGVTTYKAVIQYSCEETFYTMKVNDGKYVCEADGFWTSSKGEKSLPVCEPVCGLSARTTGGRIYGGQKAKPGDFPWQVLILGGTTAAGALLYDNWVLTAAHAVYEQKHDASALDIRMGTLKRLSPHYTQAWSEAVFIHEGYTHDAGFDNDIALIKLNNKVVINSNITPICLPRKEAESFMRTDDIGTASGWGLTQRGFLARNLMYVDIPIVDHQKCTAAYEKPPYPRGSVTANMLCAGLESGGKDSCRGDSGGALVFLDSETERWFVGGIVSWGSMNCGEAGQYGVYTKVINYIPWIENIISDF

[5] = biological target: T2, MASP2 in human serum; test: cell-based or functional assay; remark: listed apart in the source
[6] = biological target: T1, Murine MASP2A (S632A) protein; test: SPR (Biacore 8K), antibody captured on anti-human Fc chip, antigen as analyte
Experimental: as §1

[7] = biological target: Monkey MASP2A (S633A) protein (monkey, UniProt O00187 16-686 (human entry)); test: SPR (Biacore 8K), antibody captured on anti-human Fc chip, antigen as analyte, 1:1 fit
Sequence of Monkey MASP2A (S633A) protein (O00187 other isoform, or with tags, fused parts or gaps S633A S633A): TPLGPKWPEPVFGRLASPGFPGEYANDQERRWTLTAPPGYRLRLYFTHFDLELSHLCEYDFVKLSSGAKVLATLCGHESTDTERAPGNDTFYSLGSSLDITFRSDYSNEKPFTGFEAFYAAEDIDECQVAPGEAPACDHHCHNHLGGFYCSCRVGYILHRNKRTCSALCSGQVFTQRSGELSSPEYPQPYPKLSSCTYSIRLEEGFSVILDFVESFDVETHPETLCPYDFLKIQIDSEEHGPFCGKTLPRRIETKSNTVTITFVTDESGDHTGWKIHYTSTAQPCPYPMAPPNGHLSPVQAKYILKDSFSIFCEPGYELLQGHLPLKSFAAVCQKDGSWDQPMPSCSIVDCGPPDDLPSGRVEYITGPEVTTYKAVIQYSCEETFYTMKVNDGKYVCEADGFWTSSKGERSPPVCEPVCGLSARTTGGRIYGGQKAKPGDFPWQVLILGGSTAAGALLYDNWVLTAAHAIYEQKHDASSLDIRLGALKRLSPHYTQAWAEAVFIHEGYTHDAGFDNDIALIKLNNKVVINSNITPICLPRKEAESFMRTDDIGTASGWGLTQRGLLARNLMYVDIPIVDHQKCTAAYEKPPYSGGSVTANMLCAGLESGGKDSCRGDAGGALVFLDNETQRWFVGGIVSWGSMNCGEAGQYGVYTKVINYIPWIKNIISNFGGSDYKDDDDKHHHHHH
Experimental: as §1

[8] = biological target: T2, MASP2 in human serum; test: cell-based or functional assay; remark: listed apart in the source
[9] = biological target: T3, Human MASP2A (S633A) protein (human, UniProt O00187 16-686); test: SPR (Biacore 8K), antibody captured on anti-human Fc chip, antigen as analyte, 1:1 fit
T3 construct: also called human enzymatic mutant human MASP2A (S633A)
T3 sequence (O00187 other isoform, or with tags, fused parts or gaps S633A S633A): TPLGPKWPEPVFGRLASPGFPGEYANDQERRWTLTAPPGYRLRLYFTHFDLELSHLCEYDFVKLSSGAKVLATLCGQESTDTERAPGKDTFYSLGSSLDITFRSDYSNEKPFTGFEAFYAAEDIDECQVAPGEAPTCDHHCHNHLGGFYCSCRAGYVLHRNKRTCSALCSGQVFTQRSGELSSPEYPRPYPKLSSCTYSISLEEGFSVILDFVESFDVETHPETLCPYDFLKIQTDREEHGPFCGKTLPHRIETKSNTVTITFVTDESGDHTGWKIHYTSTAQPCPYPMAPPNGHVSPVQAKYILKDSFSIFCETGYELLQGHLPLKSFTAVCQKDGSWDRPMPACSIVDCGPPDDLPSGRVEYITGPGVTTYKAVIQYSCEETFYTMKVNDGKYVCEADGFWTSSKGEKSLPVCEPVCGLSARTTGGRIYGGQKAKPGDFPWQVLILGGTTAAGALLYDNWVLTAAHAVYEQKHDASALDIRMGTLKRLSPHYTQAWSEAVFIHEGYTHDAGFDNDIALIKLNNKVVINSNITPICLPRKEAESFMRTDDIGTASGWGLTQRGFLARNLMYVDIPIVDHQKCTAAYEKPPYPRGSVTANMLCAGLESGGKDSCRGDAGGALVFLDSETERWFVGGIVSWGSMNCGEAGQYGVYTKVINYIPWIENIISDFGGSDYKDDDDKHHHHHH
Experimental: as §1

[10] = biological target: T2, MASP2 in human serum; test: cell-based or functional assay; remark: listed apart in the source

T1 sequence (Q91WP0 other isoform, or with tags, fused parts or gaps S632A S632A): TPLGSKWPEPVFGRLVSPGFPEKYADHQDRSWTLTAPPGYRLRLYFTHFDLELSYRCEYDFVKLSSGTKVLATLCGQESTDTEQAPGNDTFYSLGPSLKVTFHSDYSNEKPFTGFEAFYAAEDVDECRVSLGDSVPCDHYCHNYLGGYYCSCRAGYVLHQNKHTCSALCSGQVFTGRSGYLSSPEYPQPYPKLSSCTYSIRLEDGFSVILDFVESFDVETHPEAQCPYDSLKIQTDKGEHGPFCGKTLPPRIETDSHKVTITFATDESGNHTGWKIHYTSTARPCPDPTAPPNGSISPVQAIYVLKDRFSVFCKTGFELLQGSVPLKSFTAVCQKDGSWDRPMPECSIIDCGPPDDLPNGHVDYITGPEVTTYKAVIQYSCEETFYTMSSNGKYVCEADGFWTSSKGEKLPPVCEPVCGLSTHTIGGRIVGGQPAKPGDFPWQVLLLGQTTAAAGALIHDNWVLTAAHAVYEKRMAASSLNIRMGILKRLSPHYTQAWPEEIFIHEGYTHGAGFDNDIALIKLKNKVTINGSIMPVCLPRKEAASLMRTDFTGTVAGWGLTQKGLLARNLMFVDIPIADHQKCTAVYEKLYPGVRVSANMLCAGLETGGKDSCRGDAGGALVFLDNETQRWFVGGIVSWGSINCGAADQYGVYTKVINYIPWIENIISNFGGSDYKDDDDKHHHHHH
Sequence of MASP2 in mouse serum (Q91WP0 20-685 limits assumed): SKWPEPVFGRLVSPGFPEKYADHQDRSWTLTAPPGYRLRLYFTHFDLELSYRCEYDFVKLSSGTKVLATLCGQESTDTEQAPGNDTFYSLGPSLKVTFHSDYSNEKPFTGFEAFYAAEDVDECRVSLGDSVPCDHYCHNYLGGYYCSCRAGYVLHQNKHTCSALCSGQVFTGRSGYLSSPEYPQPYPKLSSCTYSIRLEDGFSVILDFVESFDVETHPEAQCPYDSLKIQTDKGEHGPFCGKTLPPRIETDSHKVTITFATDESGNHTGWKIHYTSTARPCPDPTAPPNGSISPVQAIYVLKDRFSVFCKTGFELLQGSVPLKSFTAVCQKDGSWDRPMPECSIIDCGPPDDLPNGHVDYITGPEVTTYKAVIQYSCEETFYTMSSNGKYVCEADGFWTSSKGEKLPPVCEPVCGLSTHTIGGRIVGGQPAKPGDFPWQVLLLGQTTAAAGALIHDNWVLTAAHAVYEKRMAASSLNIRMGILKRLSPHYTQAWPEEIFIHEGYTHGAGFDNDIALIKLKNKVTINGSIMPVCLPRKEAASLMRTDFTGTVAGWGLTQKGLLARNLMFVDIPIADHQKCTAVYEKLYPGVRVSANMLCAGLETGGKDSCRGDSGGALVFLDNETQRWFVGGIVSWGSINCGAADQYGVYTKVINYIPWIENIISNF

B1: OMS721 (antibody, human IgG4 S228P, lambda, V domains shown)
VH: QVTLKESGPVLVKPTETLTLTCTVSGFSLSRGKMGVSWIRQPPGKALEWLAHIFSSDEKSYRTSLKSRLTISKDTSKNQVVLTMTNMDPVDTATYYCARIRRGGIDYWGQGTLVTVSS
VL: QPVLTQPPSLSVSPGQTASITCSGEKLGDKYAYWYQQKPGQSPVLVMYQDKQRPSGIPERFSGSNSGNTATLTISGTQAMDEADYYCQAWDSSTAVFGGGTKLTVLG
notes: Positive control, synthesized according to WO2012151481A; also called narsoplimab; positive control antibody
90% monkey serum IC50 (µg/mL), inhibition of the lectin pathway (C4c deposition on mannan) [1]: 26.6 µg/mL | 90% mouse serum IC50 (µg/mL), inhibition of the lectin pathway (C4c deposition on mannan) [2]: 3.74 µg/mL | Kd [3]: 0.233 nM

B2: 77H11 (H3L1) (antibody, human IgG4 S228P, kappa, V domains shown)
VH: EVQLQESGPGLVKPSQTLSLTCTVSGYSITSDYAWNWIRQPPGKGLEWIGYISYSGRTSYNPSLKSRVTISRDTSKNQFSLKLSSVTAADTAVYYCAVLYALDYWGQGTTVTVSS
VL: DIQMTQSPSSLSASVGDRVTITCKASQNVDTNVAWYQQKPGKVPKALIYSASYRYSGVPSRFSGSGSGTDFTLTISSLQPEDVATYYCQQYNSNPLTFGQGTKLEIKR
notes: Humanized 77H11, full-length human IgG4 (S228P); also called 77H1(H3L1); 77H1 (H3L1)
IC50 (µg/mL), inhibition of the lectin pathway in 90% human serum (C4c deposition on mannan) [4]: 0.624 µg/mL | 90% human serum IC50 (µg/mL), inhibition of the lectin pathway (C4c deposition on mannan) [5]: 0.97 µg/mL | 90% monkey serum IC50 (µg/mL), inhibition of the lectin pathway (C4c deposition on mannan) [1]: 21.6 µg/mL | binding result [6]: no binding | Kd [7]: 0.14 nM | koff [7]: 8.63e-05 s⁻¹ | kon [7]: 616000 M⁻¹ s⁻¹

B3: 77H11 (H4L1) (antibody, V domains shown)
VH: EVQLQESGPGLVKPSQTLSLTCTVSGYSITSDYAWNWIRQPPGNKLEWMGYISYSGRTSYNPSLKSRITISRDTSKNQFSLKLSSVTAADTAVYYCAVLYALDYWGQGTTVTVSS
VL: DIQMTQSPSSLSASVGDRVTITCKASQNVDTNVAWYQQKPGKVPKALIYSASYRYSGVPSRFSGSGSGTDFTLTISSLQPEDVATYYCQQYNSNPLTFGQGTKLEIK
IC50 (µg/mL), inhibition of the lectin pathway in 90% human serum (C4c deposition on mannan) [4]: 0.67 µg/mL

B4: 77H11 (H4L2) (antibody, V domains shown)
VH: EVQLQESGPGLVKPSQTLSLTCTVSGYSITSDYAWNWIRQPPGNKLEWMGYISYSGRTSYNPSLKSRITISRDTSKNQFSLKLSSVTAADTAVYYCAVLYALDYWGQGTTVTVSS
VL: DIQMTQSPSSLSASVGDRVTITCKASQNVDTNVAWYQQKPGKSPKALIYSASYRYSGVPSRFSGSGSGTDFTLTISSLQPEDVAEYYCQQYNSNPLTFGQGTKLEIK
IC50 (µg/mL), inhibition of the lectin pathway in 90% human serum (C4c deposition on mannan) [4]: 0.443 µg/mL

B5: 77H11 (H2L2) (antibody, V domains shown)
VH: EVQLQESGPGLVKPSQTLSLTCTVSGYSITSDYAWNWIRQPPGKGLEWIGYISYSGRTSYNPSLKSRVTISVDTSKNQFSLKLSSVTAADTAVYYCAVLYALDYWGQGTTVTVSS
VL: DIQMTQSPSSLSASVGDRVTITCKASQNVDTNVAWYQQKPGKSPKALIYSASYRYSGVPSRFSGSGSGTDFTLTISSLQPEDVAEYYCQQYNSNPLTFGQGTKLEIK
IC50 (µg/mL), inhibition of the lectin pathway in 90% human serum (C4c deposition on mannan) [4]: 1.58 µg/mL

B6: 77H11 (H3L2) (antibody, V domains shown)
VH: EVQLQESGPGLVKPSQTLSLTCTVSGYSITSDYAWNWIRQPPGKGLEWIGYISYSGRTSYNPSLKSRVTISRDTSKNQFSLKLSSVTAADTAVYYCAVLYALDYWGQGTTVTVSS
VL: DIQMTQSPSSLSASVGDRVTITCKASQNVDTNVAWYQQKPGKSPKALIYSASYRYSGVPSRFSGSGSGTDFTLTISSLQPEDVAEYYCQQYNSNPLTFGQGTKLEIK
IC50 (µg/mL), inhibition of the lectin pathway in 90% human serum (C4c deposition on mannan) [4]: 0.454 µg/mL

B7: 77H11 (antibody, V domains shown)
VH: DVQLQESGPGLVKPSQSLSLTCTVTGYSITSDYAWNWIRQFPGNKLEWMGYISYSGRTSYNPSLKSRISITRDTSKNQFFLQLNSVTTEDTATYYCAVLYALDYWGQGTSVTVSS
VL: DIVMTQSQKFMSTSVGDRVSVTCKASQNVDTNVAWYQQKPGQSPKALIYSASYRYSGVPDRFTGSGSGTDFTLTISDVQSEDLAEYFCQQYNSNPLTFGSGTKLEIK
IC50 (µg/mL), inhibition of the lectin pathway in 1% human serum (C4c deposition on mannan) [8]: 0.63 µg/mL

B8: 67E8 (antibody, V domains shown)
VH: DVQLQESGPGLVKPSQSLSLTCTVTGYSITSDYAWNWIRQFPGNKLEWMGYISYSGRTSYNPSLKSRISITRDTSKNQFFLQLNSVTTEDTATYYCAILYAMDYWGQGTSVTVSS
VL: DIVMTQSQKFMSTSVGDRVSVTCKASQNVDTNVAWYQQKPGQSPKALIYSASYRYSGVPDRFTGSGSGTDFTLTISNVQSEDLAEYFCQQYNSNPLTFGSGTKLEIK
IC50 (µg/mL), inhibition of the lectin pathway in 1% human serum (C4c deposition on mannan) [8]: 0.738 µg/mL

B9: 67D2 (antibody, V domains shown)
VH: DVQLQESGPGLVKPSQSLSLTCTVTGYSITSDYAWNWIRQFPGNKLEWMGYISYSGRTSYNPSLKSRISITRDTSKNQFFLQLNSVTTEDTATYYCAILYAMNFWGQGTSVTVSS
VL: DIVMTQSQKFMSTSVGDRVSVTCKASQNVDTNVAWYQQKPGQSPKALIYSASYRFSGVPDRFTGSGSGTDFTLTISNVQSEDLAEYFCQQYNSNPLTFGSGTKLEIK
IC50 (µg/mL), inhibition of the lectin pathway in 1% human serum (C4c deposition on mannan) [8]: 0.559 µg/mL

B10: 29C1 (H1L1) (antibody, human IgG4 S228P, kappa, V domains shown)
VH: EVQLVESGGGLVKPGGSLRLSCAASGFTFSRFALSWVRQAPGKGLEWVSAVSRGGDYTYYPDSMKGRFTISRDNAKNSLYLQMNSLRAEDTAVYYCARHLYGYGHYYAMDYWGQGTTVTVSS
VL: DIQMTQSPSSLSASVGDRVTITCKASQDVNTAVAWYQQKPGKAPKLLIYSASYRYTGVPSRFSGSGSGTDFTFTISSLQPEDIATYYCQQHYSTPYTFGGGTKVEIKR
notes: Humanized 29C1, full-length human IgG4 (S228P); also called 29C1 (HIL1)
IC50 (µg/mL), inhibition of the lectin pathway in 90% human serum (C4c deposition on mannan) [4]: 0.477 µg/mL | 90% human serum IC50 (µg/mL), inhibition of the lectin pathway (C4c deposition on mannan) [5]: 1.18 µg/mL | 90% monkey serum IC50 (µg/mL), inhibition of the lectin pathway (C4c deposition on mannan) [1]: 15.3 µg/mL | binding result [6]: no binding | Kd [9]: 0.0716 nM | koff [9]: 2.94e-05 s⁻¹ | kon [9]: 410000 M⁻¹ s⁻¹ | Kd [7]: 0.193 nM | koff [7]: 6.83e-05 s⁻¹ | kon [7]: 354000 M⁻¹ s⁻¹

B11: 29C1 (H3L2) (antibody, V domains shown)
VH: EVQLVESGGGLVKPGGSLRLSCAASGFTFSRFALSWVRQAPGKGLEWVAAVSRGGDYTYYPDSMKGRFTISRDNAKNSLYLQMNSLRAEDTAVYYCARHLYGYGHYYAMDYWGQGTTVTVSS
VL: DIVMTQSPSSLSASVGDRVTITCKASQDVNTAVAWYQQKPGKSPKLLIYSASYRYTGVPSRFSGSGSGTDFTFTISSLQPEDIATYYCQQHYSTPYTFGGGTKVEIK
IC50 (µg/mL), inhibition of the lectin pathway in 90% human serum (C4c deposition on mannan) [4]: 0.515 µg/mL

B12: 29C1 (H3L1) (antibody, V domains shown)
VH: EVQLVESGGGLVKPGGSLRLSCAASGFTFSRFALSWVRQAPGKGLEWVAAVSRGGDYTYYPDSMKGRFTISRDNAKNSLYLQMNSLRAEDTAVYYCARHLYGYGHYYAMDYWGQGTTVTVSS
VL: DIQMTQSPSSLSASVGDRVTITCKASQDVNTAVAWYQQKPGKAPKLLIYSASYRYTGVPSRFSGSGSGTDFTFTISSLQPEDIATYYCQQHYSTPYTFGGGTKVEIK
IC50 (µg/mL), inhibition of the lectin pathway in 90% human serum (C4c deposition on mannan) [4]: 0.526 µg/mL

B13: 29C1 (H2L1) (antibody, V domains shown)
VH: EVQLVESGGGLVKPGGSLRLSCAASGFTFSRFALSWVRQAPGKGLEWVAAVSRGGDYTYYPDSMKGRFTISRDNAKNSLYLQMNSLRAEDTAVYYCARHLYGYGHYYAMDYWGQGTTVTVSS
VL: DIQMTQSPSSLSASVGDRVTITCKASQDVNTAVAWYQQKPGKAPKLLIYSASYRYTGVPSRFSGSGSGTDFTFTISSLQPEDIATYYCQQHYSTPYTFGGGTKVEIK
IC50 (µg/mL), inhibition of the lectin pathway in 90% human serum (C4c deposition on mannan) [4]: 0.471 µg/mL

B14: 29C1 (H2L2) (antibody, V domains shown)
VH: EVQLVESGGGLVKPGGSLRLSCAASGFTFSRFALSWVRQAPGKGLEWVAAVSRGGDYTYYPDSMKGRFTISRDNAKNSLYLQMNSLRAEDTAVYYCARHLYGYGHYYAMDYWGQGTTVTVSS
VL: DIVMTQSPSSLSASVGDRVTITCKASQDVNTAVAWYQQKPGKSPKLLIYSASYRYTGVPSRFSGSGSGTDFTFTISSLQPEDIATYYCQQHYSTPYTFGGGTKVEIK
IC50 (µg/mL), inhibition of the lectin pathway in 90% human serum (C4c deposition on mannan) [4]: 0.555 µg/mL

B15: 29C1 (H1L2) (antibody, V domains shown)
VH: EVQLVESGGGLVKPGGSLRLSCAASGFTFSRFALSWVRQAPGKGLEWVSAVSRGGDYTYYPDSMKGRFTISRDNAKNSLYLQMNSLRAEDTAVYYCARHLYGYGHYYAMDYWGQGTTVTVSS
VL: DIVMTQSPSSLSASVGDRVTITCKASQDVNTAVAWYQQKPGKSPKLLIYSASYRYTGVPSRFSGSGSGTDFTFTISSLQPEDIATYYCQQHYSTPYTFGGGTKVEIK
IC50 (µg/mL), inhibition of the lectin pathway in 90% human serum (C4c deposition on mannan) [4]: 0.534 µg/mL

B16: 29C1 (antibody, V domains shown)
VH: EVQLVESGGGLVKPGGSLKLSCAASGFTFSRFALSWVRQTPEKRLEWVAAVSRGGDYTYYPDSMKGRFTISRDNAMNTLYLQMSSLSSEDTAMYYCARHLYGYGHYYAMDYWGQGTSVTVSS
VL: DIVMTQSHKFMSTSVGDRVSITCKASQDVNTAVAWYQQKPGQSPKLLIYSASYRYTGVPDRFTGSGSGTDFTFTISSVQAEDLAVYYCQQHYSTPYTFGGGTKLEIK
IC50 (µg/mL), inhibition of the lectin pathway in 1% human serum (C4c deposition on mannan) [10]: 0.086 µg/mL
